Our source for the Kd values is paper doi:10.1101/2025.11.04.686334.

The test concerns the target FluA-20 mAb. Description: BLI. (Biolayer interferometry detects binding as a change in optical thickness at a sensor tip.)

HA220-2, sequence (Q9NZ52 16-146): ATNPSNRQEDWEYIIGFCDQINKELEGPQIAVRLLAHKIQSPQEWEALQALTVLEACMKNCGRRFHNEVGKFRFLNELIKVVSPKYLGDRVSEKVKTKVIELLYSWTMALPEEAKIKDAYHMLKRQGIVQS
FluA-20 mAb, sequence (heavy, as listed by the source, chain 1 of 2): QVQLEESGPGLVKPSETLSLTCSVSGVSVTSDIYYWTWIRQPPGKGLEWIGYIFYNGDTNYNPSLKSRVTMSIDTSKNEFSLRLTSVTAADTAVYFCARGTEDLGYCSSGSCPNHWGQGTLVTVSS
FluA-20 mAb, sequence (light, as listed by the source, chain 2 of 2): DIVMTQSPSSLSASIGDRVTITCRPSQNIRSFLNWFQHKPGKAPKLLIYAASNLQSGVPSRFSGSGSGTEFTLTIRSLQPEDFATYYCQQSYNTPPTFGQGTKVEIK

A word on the Kd: it is the free concentration of one partner at which half of the binding sites on the other are occupied at equilibrium, for simple one-to-one binding. A higher Kd goes with a looser complex. HA220-2 (from UniProt Q9NZ52 16-146) registered a Kd of 978 nM.
